Test results taken from US20230348603A1 (VERSEAU THERAPEUTICS, published 2023).

Key:
Human VSIG4-L-Fc [1] = target: T1, Human VSIG4-L-Fc (human); experiment: ligand blocking of iC3b, IgG
T1 construct: also called hVSIG4-L-Fc; hVSIG4-L

Human VSIG4-L-Fc [2] = target: T1, Human VSIG4-L-Fc; experiment: BLI cross-blocking on hVSIG4-L-Fc, competitor 14C05 first
Human VSIG4-L-Fc [3] = target: T1, Human VSIG4-L-Fc; experiment: BLI binning on hVSIG4-L-Fc, competitor 16E03 first;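 note: normalized to binding of second antibody without first competitor antibody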
Human VSIG4-L-Fc [4] = target: T1, Human VSIG4-L-Fc; experiment: BLI binning on hVSIG4-L-Fc, competitor 15C03 first;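 note: normalized to binding of second antibody without first competitor antibody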
[5] = target: T2, Human VSIG4-L-CHO (human VSIG4 long isoform on CHO-K1 cells) (human, UniProt Q9Y279 20-399); experiment: flow cytometry, CHO-K1 cells expressing hVSIG4-L
T2 construct: also called hVSIG4-L (flow cytometry)
T2 sequence: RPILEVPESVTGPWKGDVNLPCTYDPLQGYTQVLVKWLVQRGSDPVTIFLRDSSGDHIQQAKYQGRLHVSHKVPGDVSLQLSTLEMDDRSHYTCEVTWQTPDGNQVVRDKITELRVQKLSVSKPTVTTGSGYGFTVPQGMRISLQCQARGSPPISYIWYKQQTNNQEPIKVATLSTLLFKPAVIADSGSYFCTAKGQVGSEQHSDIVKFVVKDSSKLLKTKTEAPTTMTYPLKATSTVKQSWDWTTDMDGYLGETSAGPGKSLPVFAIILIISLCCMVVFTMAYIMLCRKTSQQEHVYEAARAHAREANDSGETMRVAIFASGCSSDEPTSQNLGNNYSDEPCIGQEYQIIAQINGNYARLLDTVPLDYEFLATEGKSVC

Mouse VSIG4-His = target: T3, Mouse VSIG4-His (mouse); experiment: ELISA, IgG 50 nM on coated antigen;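 note: Mouse-human chimeric IgG4 antibodies incubated 1 h on plate-coated VSIG4 proteins, bound IgG detected with HRP-labelled anti-human IgG, irrelevant antibody and protein as specificity controls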
T3 construct: ECD with His tag; also called mVSIG4
T3 chain: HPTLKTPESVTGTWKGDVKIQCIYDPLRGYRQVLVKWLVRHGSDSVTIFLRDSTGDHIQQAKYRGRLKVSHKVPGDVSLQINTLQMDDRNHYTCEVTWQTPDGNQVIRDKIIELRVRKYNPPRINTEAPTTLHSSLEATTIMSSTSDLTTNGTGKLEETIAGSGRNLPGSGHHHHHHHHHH

[6] = target: T4, Cynomolgus Monkey VSIG4-L-His (cynomolgus monkey); experiment: ELISA, IgG 50 nM on coated antigen;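 note: Mouse-human chimeric IgG4 antibodies incubated 1 h on plate-coated VSIG4 proteins, bound IgG detected with HRP-labelled anti-human IgG, irrelevant antibody and protein as specificity controls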
T4 construct: ECD with His tag; also called cyVSIG4-L; cyno VSIG4-L-His
T4 chain: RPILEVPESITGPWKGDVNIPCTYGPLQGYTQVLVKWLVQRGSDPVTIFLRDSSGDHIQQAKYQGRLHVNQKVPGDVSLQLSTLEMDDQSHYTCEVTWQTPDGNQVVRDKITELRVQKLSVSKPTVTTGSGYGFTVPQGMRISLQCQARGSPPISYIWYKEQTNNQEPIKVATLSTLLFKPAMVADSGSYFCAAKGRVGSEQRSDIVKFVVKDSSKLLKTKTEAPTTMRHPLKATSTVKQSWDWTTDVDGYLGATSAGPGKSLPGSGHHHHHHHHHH

Human VSIG4-S-Fc = target: T5, Human VSIG4-S-Fc (human); experiment: ELISA, IgG 50 nM on coated antigen;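 note: Mouse-human chimeric IgG4 antibodies incubated 1 h on plate-coated VSIG4 proteins, bound IgG detected with HRP-labelled anti-human IgG, irrelevant antibody and protein as specificity controls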
T5 construct: short isoform ECD fused to human Fc1; also called hVSIG4-S
T5 sequence (chain, as listed by the source limits assumed): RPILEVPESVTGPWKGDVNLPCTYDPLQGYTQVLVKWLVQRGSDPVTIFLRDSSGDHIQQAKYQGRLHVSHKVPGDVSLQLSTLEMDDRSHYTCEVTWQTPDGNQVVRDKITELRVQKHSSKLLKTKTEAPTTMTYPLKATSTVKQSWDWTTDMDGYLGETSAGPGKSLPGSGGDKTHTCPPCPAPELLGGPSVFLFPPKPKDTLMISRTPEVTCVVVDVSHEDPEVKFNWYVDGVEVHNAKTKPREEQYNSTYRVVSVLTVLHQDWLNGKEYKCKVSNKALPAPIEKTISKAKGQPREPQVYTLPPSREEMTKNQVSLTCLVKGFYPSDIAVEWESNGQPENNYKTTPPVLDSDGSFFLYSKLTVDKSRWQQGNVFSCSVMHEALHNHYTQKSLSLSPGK

Human VSIG4-L-Fc [7] = target: T1, Human VSIG4-L-Fc; experiment: ELISA, IgG 50 nM on coated antigen;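 note: Mouse-human chimeric IgG4 antibodies incubated 1 h on plate-coated VSIG4 proteins, bound IgG detected with HRP-labelled anti-human IgG, irrelevant antibody and protein as specificity controls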

- Percent Blocking iC3b (Human VSIG4-L-Fc [1]): 98%
- binding signal (nm shift) (Human VSIG4-L-Fc [2]): 0.72 nm
- normalized maximum binding nm shift (Human VSIG4-L-Fc [3]): 0.64 normalized
- normalized maximum binding nm shift (Human VSIG4-L-Fc [4]): 0.65 normalized
- EC50 [5]: 4.4 nM
- ELISA OD450 (Mouse VSIG4-His): 0.054 OD450
- ELISA OD450 [6]: 4.4 OD450
- ELISA OD450 (Human VSIG4-S-Fc): 4.18 OD450
- ELISA OD450 (Human VSIG4-L-Fc [7]): 4.45 OD450
B1: 12A12 mouse/human chimeric IgG4 (S228P) kappa (antibody, V domains shown)
VH: QVQMKQSGAELAKPGASVKMSCKASGYTFTNYWMHWVKQRPGQGLEWIGYINPSTGYTDYNQNFKDRATLTADKSSSTAYMQLSSLTSEDSAVYYCIRGSDYYGRDYWGQGTTLTVSS
VL: DIQMTQTTSSLSASLGDRVTISCRASQDISNYLNWYQQKPDGTLKLLIYYTSRLHSGVPSRFSGSGSGTDYSLTISNLEQEDIATYFCRQGNTLPWTFGGGTKLEIKR
